Measured values taken from paper PMC7898959, “Identification of an amino-terminus determinant critical for ryanodine receptor/Ca^2+ release channel function” (Cardiovascular Research, 2020).
Substitutions are numbered along the chain they refer to. Numbers in names are those of the source.

B1: NT^Δβ8–β9 (RyR2 residues 1–906, residues 167–178 removed) (domain or fragment, human, UniProt Q92736 1-906, looked up)
chain: MADGGEGEDEIQFLRTDDEVVLQCTATIHKEQQKLCLAAEGFGNRLCFLESTSNSKNVPPDLSICTFVLEQSLSVRALQEMLANTVEKSEGQVDVEKWKFMMKTAQGGGHRTLLYGHAILLRHSYSGMYLCCLSTSRSSTDKLAFDVGLQEDTTGEACWWTIHPASDDLILVSVSSERYLHLSYGNGSLHVDAAFQQTLWSVAPISSGSEAAQGYLIGGDVLRLLHGHMDECLTVPSGEHGEEQRRTVHYEGGAVSVHARSLWRLETLRVAWSGSHIRWGQPFRLRHVTTGKYLSLMEDKNLLLMDKEKADVKSTAFTFRSSKEKLDVGVRKEVDGMGTSEIKYGDSVCYIQHVDTGLWLTYQSVDVKSVRMGSIQRKAIMHHEGHMDDGISLSRSQHEESRTARVIRSTVFLFNRFIRGLDALSKKAKASTVDLPIESVSLSLQDLIGYFHPPDEHLEHEDKQNRLRALKNRQNLFQEEGMINLVLECIDRLHVYSSAAHFADVAGREAGESWKSILNSLYELLAALIRGNRKNCAQFSGSLDWLISRLERLEASSGILEVLHCVLVESPEALNIIKEGHIKSIISLLDKHGRNHKVLDVLCSLCVCHGVAVRSNQHLICDNLLPGRDLLLQTRLVNHVSSMRPNIFLGVSEGSAQYKKWYYELMVDHTEPFVTAEATHLRVGWASTEGYSPYPGGGEEWGGNGVGDDLFSYGFDGLHLWSGCIARTVSSPNQHLLRTDDVISCCLDLSAPSISFRINGQPVQGMFENFNIDGLFFPVVSFSAGIKVRFLLGGRHGEFKFLPPPGYAPCYEAVLPKEKLKVEHSREYKQERTYTRDLLGPTVSLTQAAFTPIPVDTSQIVLPPHLERIREKLAENIHELWVMNKIELGWQYGP
notes: also called β8–β9 loop deletion; source: HEK293, transiently transfected, in cell homogenate (cross-linking) or CHAPS-solubilized lysate (co-IP); not shown: cMyc, N-terminal, kept
B2: NT^Δβ23–β24 (RyR2 residues 1–906, residues 399–401 removed) (domain or fragment, human, UniProt Q92736 1-906, looked up)
chain: MADGGEGEDEIQFLRTDDEVVLQCTATIHKEQQKLCLAAEGFGNRLCFLESTSNSKNVPPDLSICTFVLEQSLSVRALQEMLANTVEKSEGQVDVEKWKFMMKTAQGGGHRTLLYGHAILLRHSYSGMYLCCLSTSRSSTDKLAFDVGLQEDTTGEACWWTIHPASKQRSEGEKVRVGDDLILVSVSSERYLHLSYGNGSLHVDAAFQQTLWSVAPISSGSEAAQGYLIGGDVLRLLHGHMDECLTVPSGEHGEEQRRTVHYEGGAVSVHARSLWRLETLRVAWSGSHIRWGQPFRLRHVTTGKYLSLMEDKNLLLMDKEKADVKSTAFTFRSSKEKLDVGVRKEVDGMGTSEIKYGDSVCYIQHVDTGLWLTYQSVDVKSVRMGSIQRKAIMHHEGHGISLSRSQHEESRTARVIRSTVFLFNRFIRGLDALSKKAKASTVDLPIESVSLSLQDLIGYFHPPDEHLEHEDKQNRLRALKNRQNLFQEEGMINLVLECIDRLHVYSSAAHFADVAGREAGESWKSILNSLYELLAALIRGNRKNCAQFSGSLDWLISRLERLEASSGILEVLHCVLVESPEALNIIKEGHIKSIISLLDKHGRNHKVLDVLCSLCVCHGVAVRSNQHLICDNLLPGRDLLLQTRLVNHVSSMRPNIFLGVSEGSAQYKKWYYELMVDHTEPFVTAEATHLRVGWASTEGYSPYPGGGEEWGGNGVGDDLFSYGFDGLHLWSGCIARTVSSPNQHLLRTDDVISCCLDLSAPSISFRINGQPVQGMFENFNIDGLFFPVVSFSAGIKVRFLLGGRHGEFKFLPPPGYAPCYEAVLPKEKLKVEHSREYKQERTYTRDLLGPTVSLTQAAFTPIPVDTSQIVLPPHLERIREKLAENIHELWVMNKIELGWQYGP
notes: cardiac ryanodine receptor (RyR2), N-terminus, residues 1-906, with residues 399-401 removed; source: HEK293, transiently transfected, in cell homogenate; not shown: cMyc, N-terminal, kept
B3: NT^(E173A + K174A) (RyR2 residues 1–906) (domain or fragment, human, UniProt Q92736 1-906, looked up)
chain: MADGGEGEDEIQFLRTDDEVVLQCTATIHKEQQKLCLAAEGFGNRLCFLESTSNSKNVPPDLSICTFVLEQSLSVRALQEMLANTVEKSEGQVDVEKWKFMMKTAQGGGHRTLLYGHAILLRHSYSGMYLCCLSTSRSSTDKLAFDVGLQEDTTGEACWWTIHPASKQRSEGAAVRVGDDLILVSVSSERYLHLSYGNGSLHVDAAFQQTLWSVAPISSGSEAAQGYLIGGDVLRLLHGHMDECLTVPSGEHGEEQRRTVHYEGGAVSVHARSLWRLETLRVAWSGSHIRWGQPFRLRHVTTGKYLSLMEDKNLLLMDKEKADVKSTAFTFRSSKEKLDVGVRKEVDGMGTSEIKYGDSVCYIQHVDTGLWLTYQSVDVKSVRMGSIQRKAIMHHEGHMDDGISLSRSQHEESRTARVIRSTVFLFNRFIRGLDALSKKAKASTVDLPIESVSLSLQDLIGYFHPPDEHLEHEDKQNRLRALKNRQNLFQEEGMINLVLECIDRLHVYSSAAHFADVAGREAGESWKSILNSLYELLAALIRGNRKNCAQFSGSLDWLISRLERLEASSGILEVLHCVLVESPEALNIIKEGHIKSIISLLDKHGRNHKVLDVLCSLCVCHGVAVRSNQHLICDNLLPGRDLLLQTRLVNHVSSMRPNIFLGVSEGSAQYKKWYYELMVDHTEPFVTAEATHLRVGWASTEGYSPYPGGGEEWGGNGVGDDLFSYGFDGLHLWSGCIARTVSSPNQHLLRTDDVISCCLDLSAPSISFRINGQPVQGMFENFNIDGLFFPVVSFSAGIKVRFLLGGRHGEFKFLPPPGYAPCYEAVLPKEKLKVEHSREYKQERTYTRDLLGPTVSLTQAAFTPIPVDTSQIVLPPHLERIREKLAENIHELWVMNKIELGWQYGP
notes: cardiac ryanodine receptor (RyR2), N-terminus, residues 1-906, double alanine substitution E173 + K174; negative control mutant; source: HEK293, transiently transfected, in cell homogenate; not shown: cMyc, N-terminal, kept
B4: wild-type RyR2 N-terminus (NT, residues 1–906) tagged with the cMyc epitope (domain or fragment, human, UniProt Q92736 1-906, looked up)
chain: B3 chain with A173E, A174K
notes: cardiac ryanodine receptor (RyR2), N-terminus, residues 1-906; species is stated for the full-length RyR2 cDNA (human), not for NT itself; also called NT^WT; source: HEK293, transiently transfected, in cell homogenate (cross-linking) or CHAPS-solubilized lysate (co-IP); not shown: cMyc, N-terminal, kept
B5: NT^(D179A + D180A) (RyR2 residues 1–906) (domain or fragment, human, UniProt Q92736 1-906, looked up)
chain: B3 chain with A173E, A174K, D179A, D180A
notes: cardiac ryanodine receptor (RyR2), N-terminus, residues 1-906, double alanine substitution D179 + D180; also called D179A + D180A mutant; source: HEK293, transiently transfected, in cell homogenate; not shown: cMyc, N-terminal, kept
B6: NT^(K167A + Q168A) (RyR2 residues 1–906) (domain or fragment, human, UniProt Q92736 1-906, looked up)
chain: B3 chain with K167A, Q168A, A173E, A174K
notes: cardiac ryanodine receptor (RyR2), N-terminus, residues 1-906, double alanine substitution K167 + Q168; source: HEK293, transiently transfected, in cell homogenate; not shown: cMyc, N-terminal, kept
B7: NT^R176Q (RyR2 residues 1–906 with the arrhythmia-linked R176Q mutation) (domain or fragment, human, UniProt Q92736 1-906, looked up)
chain: B3 chain with A173E, A174K, R176Q
notes: cardiac ryanodine receptor (RyR2), N-terminus, residues 1-906, with the disease-linked (ARVD2, CPVT) mutation R176Q; source: HEK293, transiently transfected, in cell homogenate (cross-linking) or CHAPS-solubilized lysate (co-IP); not shown: cMyc, N-terminal, kept

Molecular target: the molecule itself
Experiment: cross-linking; HEK293 cell homogenate (20 μg) with glutaraldehyde (0.0025% or 260 μmol/L) for 0 min to 1 h under reducing (10 mM DTT) conditions; SDS-PAGE and blot with Ab^cMyc; tetramer formation T = ODT/(ODT + ODM) × 100 by densitometry

Stoichiometry N, 4:
B1
B2
B3
B4
B5
B6
B7
